# Experimental data: paper PMC6007841
# Legend:
# [1] = molecular target: human melanocortin 1 receptor (human) (UniProt Q01726)
# [2] = molecular target: human melanocortin 3 receptor (human) (UniProt P41968)
# [3] = molecular target: human melanocortin 4 receptor (human) (UniProt P32245)
# [4] = molecular target: human melanocortin 5 receptor (human) (UniProt P33032)
# [5] = molecular target: mouse melanocortin 1 receptor (mouse) (UniProt Q01727)
# [6] = molecular target: mouse melanocortin 3 receptor (mouse) (UniProt P33033)
# Chain of mouse melanocortin 3 receptor (mouse) (P33033 whole entry): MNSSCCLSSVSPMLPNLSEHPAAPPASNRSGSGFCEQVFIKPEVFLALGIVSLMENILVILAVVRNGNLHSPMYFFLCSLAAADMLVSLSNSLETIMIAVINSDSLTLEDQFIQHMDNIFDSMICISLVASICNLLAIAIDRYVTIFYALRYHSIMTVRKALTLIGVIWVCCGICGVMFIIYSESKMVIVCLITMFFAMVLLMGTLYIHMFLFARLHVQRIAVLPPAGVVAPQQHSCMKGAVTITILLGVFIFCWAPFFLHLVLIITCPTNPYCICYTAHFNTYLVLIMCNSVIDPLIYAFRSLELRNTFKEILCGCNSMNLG
# [7] = molecular target: mouse melanocortin 4 receptor (mouse) (UniProt P56450)
# Chain of mouse melanocortin 4 receptor (mouse) (P56450 whole entry): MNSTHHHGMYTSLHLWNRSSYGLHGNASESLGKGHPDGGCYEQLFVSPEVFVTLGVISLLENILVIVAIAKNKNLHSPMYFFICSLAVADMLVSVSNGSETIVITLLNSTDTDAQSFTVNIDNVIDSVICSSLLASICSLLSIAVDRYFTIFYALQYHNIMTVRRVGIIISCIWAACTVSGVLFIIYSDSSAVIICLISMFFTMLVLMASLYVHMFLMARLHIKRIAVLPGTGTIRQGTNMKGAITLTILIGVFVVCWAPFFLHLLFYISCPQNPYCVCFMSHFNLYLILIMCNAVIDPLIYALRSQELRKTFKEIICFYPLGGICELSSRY
# [8] = molecular target: mouse melanocortin 5 receptor (mouse) (UniProt P41149)
# Chain of mouse melanocortin 5 receptor (mouse) (P41149 whole entry): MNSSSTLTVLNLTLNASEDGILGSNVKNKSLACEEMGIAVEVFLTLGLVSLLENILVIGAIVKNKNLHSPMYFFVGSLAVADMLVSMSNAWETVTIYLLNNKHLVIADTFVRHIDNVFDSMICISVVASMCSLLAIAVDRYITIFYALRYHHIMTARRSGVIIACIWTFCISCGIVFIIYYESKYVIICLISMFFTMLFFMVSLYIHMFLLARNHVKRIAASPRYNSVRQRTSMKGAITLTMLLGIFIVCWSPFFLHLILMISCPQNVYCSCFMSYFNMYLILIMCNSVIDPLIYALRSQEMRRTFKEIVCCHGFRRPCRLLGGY
# Chain of human melanocortin 3 receptor (human) (P41968 whole entry): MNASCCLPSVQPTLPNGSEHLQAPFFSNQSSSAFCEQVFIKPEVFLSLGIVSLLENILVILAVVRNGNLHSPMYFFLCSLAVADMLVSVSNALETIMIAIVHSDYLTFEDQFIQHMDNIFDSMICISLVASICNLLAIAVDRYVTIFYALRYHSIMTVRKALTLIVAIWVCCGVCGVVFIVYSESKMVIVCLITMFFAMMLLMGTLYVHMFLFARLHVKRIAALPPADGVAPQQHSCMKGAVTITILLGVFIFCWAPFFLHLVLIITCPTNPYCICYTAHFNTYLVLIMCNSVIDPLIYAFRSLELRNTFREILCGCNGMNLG
# Chain of mouse melanocortin 1 receptor (mouse) (Q01727 whole entry): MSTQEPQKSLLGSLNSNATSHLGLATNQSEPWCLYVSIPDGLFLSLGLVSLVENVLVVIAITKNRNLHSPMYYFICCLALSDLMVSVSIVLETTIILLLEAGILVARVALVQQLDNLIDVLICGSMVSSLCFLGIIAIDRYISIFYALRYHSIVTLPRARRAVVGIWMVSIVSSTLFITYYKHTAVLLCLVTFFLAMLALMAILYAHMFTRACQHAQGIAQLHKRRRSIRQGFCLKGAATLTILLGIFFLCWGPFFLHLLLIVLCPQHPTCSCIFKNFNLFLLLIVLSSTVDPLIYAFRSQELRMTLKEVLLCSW
# Chain of human melanocortin 1 receptor (human) (Q01726 whole entry): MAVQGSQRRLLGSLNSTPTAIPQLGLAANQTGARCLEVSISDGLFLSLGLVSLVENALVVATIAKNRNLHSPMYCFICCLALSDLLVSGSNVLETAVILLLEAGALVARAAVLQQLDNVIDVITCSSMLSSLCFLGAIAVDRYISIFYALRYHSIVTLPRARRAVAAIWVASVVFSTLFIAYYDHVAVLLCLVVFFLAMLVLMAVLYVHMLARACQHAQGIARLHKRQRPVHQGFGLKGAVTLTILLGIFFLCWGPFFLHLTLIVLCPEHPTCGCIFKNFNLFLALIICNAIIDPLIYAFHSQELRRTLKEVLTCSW
# Chain of human melanocortin 4 receptor (human) (P32245 whole entry): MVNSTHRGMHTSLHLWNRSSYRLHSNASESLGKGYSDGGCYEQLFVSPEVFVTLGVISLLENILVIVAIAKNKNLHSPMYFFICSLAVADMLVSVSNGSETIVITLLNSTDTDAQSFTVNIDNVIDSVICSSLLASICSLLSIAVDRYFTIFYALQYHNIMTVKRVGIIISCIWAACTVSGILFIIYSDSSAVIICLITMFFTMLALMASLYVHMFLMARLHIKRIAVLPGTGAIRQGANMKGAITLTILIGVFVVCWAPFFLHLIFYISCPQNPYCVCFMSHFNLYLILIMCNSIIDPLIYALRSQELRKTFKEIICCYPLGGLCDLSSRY
# Chain of human melanocortin 5 receptor (human) (P33032 whole entry): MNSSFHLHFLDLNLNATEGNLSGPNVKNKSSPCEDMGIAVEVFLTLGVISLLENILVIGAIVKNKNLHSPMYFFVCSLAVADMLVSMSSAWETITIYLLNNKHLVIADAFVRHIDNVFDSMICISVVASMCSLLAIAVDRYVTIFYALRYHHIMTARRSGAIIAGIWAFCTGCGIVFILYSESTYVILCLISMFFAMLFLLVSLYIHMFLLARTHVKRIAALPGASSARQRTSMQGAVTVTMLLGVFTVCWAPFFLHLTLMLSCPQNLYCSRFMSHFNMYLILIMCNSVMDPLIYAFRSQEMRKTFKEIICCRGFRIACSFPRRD
substance,measurement,setting,value
NDP-MSH (peptide),"cAMP agonist EC50 (AlphaScreen cAMP assay, HEK293 cells expressing the receptor)",[1],0.07 nM
same,"cAMP agonist EC50 (AlphaScreen cAMP assay, HEK293 cells expressing the receptor)",[2],0.3 nM
same,"cAMP agonist EC50 (AlphaScreen cAMP assay, HEK293 cells expressing the receptor)",[3],0.13 nM
same,"cAMP agonist EC50 (AlphaScreen cAMP assay, HEK293 cells expressing the receptor)",[4],0.4 nM
same,"cAMP agonist EC50 (AlphaScreen cAMP assay, HEK293 cells expressing the receptor)",[5],0.04 nM
same,"cAMP agonist EC50 (AlphaScreen cAMP assay, HEK293 cells expressing the receptor)",[6],0.33 nM
same,"cAMP agonist EC50 (AlphaScreen cAMP assay, HEK293 cells expressing the receptor)",[7],0.87 nM
same,"cAMP agonist EC50 (AlphaScreen cAMP assay, HEK293 cells expressing the receptor)",[8],0.41 nM
